From patent publication US20050209137A1 (published 2005)

Assays:
recombinant human leptin [1] = target: T1, recombinant human leptin (human, UniProt P41159 22-167); assay: cell-based or functional assay
[2] = target: T2, ovine leptin (fraction SP) (ovine, UniProt Q28603 1-146); assay: cell-based or functional assay
chicken leptin = target: T3, chicken leptin (chicken, UniProt O42164 19-163, limits assumed); assay: cell-based or functional assay
T3 sequence (looked up): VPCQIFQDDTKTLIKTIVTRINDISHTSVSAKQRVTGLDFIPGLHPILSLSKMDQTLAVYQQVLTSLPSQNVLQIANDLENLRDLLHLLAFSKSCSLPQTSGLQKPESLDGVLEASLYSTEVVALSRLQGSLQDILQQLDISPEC

recombinant human leptin [3] = target: T1, recombinant human leptin; assay: cell-based or functional assay; remark: listed apart in the source
[4] = target: T2, ovine leptin (fraction SP); assay: cell-based or functional assay; remark: listed apart in the source
recombinant human leptin [5] = target: T1, recombinant human leptin; assay: SPR, hLEP immobilized on CM5, LBD in flow
Experimental: Kinetic Measurements of LBD-hLEP Interactions—All experiments were performed at 25° C. using surface plasmon resonance (SPR) methodology. The kinetics and equilibrium constants for the interaction between hLEP and LBD were determined using the Biacore 3000 system (Uppsala, Sweden). hLEP was immobilized in a flow cell of a research-grade CM5 sensor chip using amine-coupling chemistry (Lofas, S. et al (1990) J. Chem. Soc. Chem. Commun. 21, 1526-1528). The immobilization steps were carried out at a flow rate of 10 μl/min in HBS-EP buffer. The surface was activated for 7 min with a mixture of N-hydroxysuccinimide (0.05 M) and N-ethyl-N′(3-dimethylaminopropyl)-carbodiimide hydrochloride (0.2 M). hLEP was injected at a concentration of 50 μg/ml in 10 mM acetate, pH 3.5, until the desired level (1000 resonance units) was achieved. Ethanolamine (1 M, pH 8.5) was injected for 7 min to block the remaining activated groups. A control surface was prepared by activating the carboxyl groups and then blocking the activated groups by ethanolamine as described. […] Regeneration of the surface after each interaction was performed by using a 10-μl pulse of 10 mM glycine buffer, pH 2. […]
SPR Determination of the Interaction between hLEP and LBD—The interactions of hLEP and LBD were analyzed by comparison with a theoretical model using Chi-square analysis.

T1 sequence (P41159 22-167): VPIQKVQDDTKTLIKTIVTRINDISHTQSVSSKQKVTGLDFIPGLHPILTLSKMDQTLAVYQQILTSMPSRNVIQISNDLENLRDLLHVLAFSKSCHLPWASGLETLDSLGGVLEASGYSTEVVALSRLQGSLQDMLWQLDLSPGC

B1: recombinant human leptin receptor leptin-binding domain (LBD), amino acids 428-635 of the human leptin receptor (receptor)
chain: MAIDVNINISCETDGYLTKMTCRWSTSTIQSLAESTLQLRYHRSSLYCSDIPSIHPISEPKDCYLQSDGFYECIFQPIFLLSGYTMWIRINHSLGSLDSPPTCVLPDSVVKPLPPSSVKAEITINIGLLKISWEKPVFPENNLQFQIRYGLSGKEVQWKMYEVYDAKSKSVSLPVPDLCAVYAVQVRCKRLDGLGYWSNWSNPAYTVVMD
notes: also called hLBD; human LBD
For B1, the “molar excess of LBD required to achieve 50% inhibition of leptin-stimulated proliferation of BAF/3 cells with the long form of human leptin receptor” value (recombinant human leptin [1]) was 200 molar excess, the “molar excess of LBD required to achieve 50% inhibition of leptin-stimulated proliferation of BAF/3 cells with the long form of human leptin receptor” value [2] was 200 molar excess and the “molar excess of LBD required to achieve 50% inhibition of leptin-stimulated proliferation of BAF/3 cells with the long form of human leptin receptor” value (chicken leptin) was 600 molar excess. For the same binder, the “IC50 (read off the curve)” value (recombinant human leptin [3]) was roughly 20 nM, the “IC50 (read off the curve)” value [4] was roughly 20 nM and the complex half-life (recombinant human leptin [5]) was 6.24 min.
